Measured values as given in patent publication US20250361274A1, “PEPTIDE AND PEPTIDE-CONTAINING AGENT” (PEPTIDREAM INC., priority 2022, published 2025).
Numbered stars: 1 amine (or outer) side, 2 acyl side, 3 side chain; on linkers, the order of the positions; unused ones are H or OH. Bridge positions count the residues as written; N and C are the ends. Square brackets hold non-standard residues; d marks the D form. Ends that are not written are not given here. KCOpipzaa = N6-(4-(carboxymethyl)piperazine-1-carbonyl)-L-lysine, O=C(NCCCC[C@H](N[*:1])C(=O)[*:2])N1CCN(CC(=O)[*:3])CC1; Bph3C = (S)-2-amino-3-(3'-chloro-[1,1'-biphenyl]-4-yl)propanoic acid, O=C([C@H](Cc1ccc(-c2cccc(Cl)c2)cc1)N[*:1])[*:2]; Bph3F = (S)-2-amino-3-(3'-fluoro-[1,1'-biphenyl]-4-yl)propanoic acid, O=C([C@H](Cc1ccc(-c2cccc(F)c2)cc1)N[*:1])[*:2]; Cha4tH = (S)-2-amino-3-((1r,4S)-4-hydroxycyclohexyl)propanoic acid, O=C([C@H](C[C@H]1CC[C@H](O[*:3])CC1)N[*:1])[*:2]; pBph2F = (S)-2-amino-3-(2-fluoro-[1,1'-biphenyl]-4-yl)propanoic acid, O=C([C@H](Cc1ccc(-c2ccccc2)c(F)c1)N[*:1])[*:2]; pBph3F = (S)-2-amino-3-(3-fluoro-[1,1'-biphenyl]-4-yl)propanoic acid, O=C([C@H](Cc1ccc(-c2ccccc2)cc1F)N[*:1])[*:2]; Phe(4-(4-F-Ph)) = N[C@@H](Cc1ccc(-c2ccc(F)cc2)cc1)C(=O)O; 3Pal(6-Ph) = N[C@@H](Cc1ccc(-c2ccccc2)nc1)C(=O)O; Phe(4-COOH) = N[C@@H](Cc1ccc(C(=O)O)cc1)C(=O)O; Bip = N[C@@H](Cc1ccc(-c2ccccc2)cc1)C(=O)O; Ala(4-THP) = N[C@@H](CC1CCOCC1)C(=O)O; Hyp = O=C(O)[C@@H]1C[C@@H](O)CN1; 4Pal = N[C@@H](Cc1ccncc1)C(=O)O; Cba = N[C@@H](CC1CCC1)C(=O)O; Chg = N[C@H](C(=O)O)C1CCCCC1

Key:
[1] = target: T1, BMP4 (Homo sapiens, UniProt P12644); assay: BMP4 signal transduction inhibitory activity: SMAD1 phosphorylation by BMP4 stimulus, AlphaLISA SureFire, A549 cells; type: cell-based
T1 sequence (P12644 293-408): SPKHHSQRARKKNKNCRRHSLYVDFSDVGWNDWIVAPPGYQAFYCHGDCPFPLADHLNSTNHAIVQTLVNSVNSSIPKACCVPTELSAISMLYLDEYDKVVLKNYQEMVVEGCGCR

[2] = target: T2, BMP7 (Homo sapiens, UniProt P18075); assay: BMP7 signal transduction inhibitory activity: SMAD1 phosphorylation by BMP7 stimulus, A549 cells; type: cell-based
T2 sequence (P18075 293-431): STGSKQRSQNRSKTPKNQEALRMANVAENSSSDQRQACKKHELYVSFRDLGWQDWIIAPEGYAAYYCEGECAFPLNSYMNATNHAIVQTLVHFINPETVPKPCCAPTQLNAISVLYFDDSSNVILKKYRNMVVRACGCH
Outline: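 SMAD1 phosphorylation readout in A549 cells stimulated with BMP7 (10 nM). Peptides were tested at three levels (e.g. 1/10/100, 10/100/1,000, 100/300/1,000, 10/30/90 nM) or at eight points, 1/3 steps, from 100 or 1,000 nM. Recombinant Noggin served as positive control at matching concentrations.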

[3] = BMP4 0.2 nM stimulus, peptide conc. in assay 0.02, 0.2, 2 nM, class symbols
[4] = BMP7 10 nM stimulus, peptide conc. in assay 10, 100, 1000 nM, class symbols
[5] = BMP4 0.2 nM, peptide 0.02, 0.2, 2 nM, Table 6
[6] = BMP7 10 nM, peptide 10, 100, 1000 nM, Table 6

Substance	aLIZA BMP4 (0.2 nM) % inh [1, 3]	aLIZA BMP7 (10 nM) % inh [2, 4]	aLIZA BMP4 (0.2 nM) % inh [1, 5]	aLIZA BMP7 (10 nM) % inh [2, 6]
299 (ERV[Phe(4-COOH)]V[KCOpipzaa]R[3Pal(6-Ph)][KCOpipzaa]Y[Hyp][Phe(4-(4-F-Ph))]Y[Phe(4-COOH)][Phe(4-COOH)]SCG-NH2; not fully specified (N-terminus, bridges); also: cyclic peptide, ring closure not given here) [compound 299]	C (showed less than 30% of inhibitory activity in 0.2 nM-addition zone and showed 30% or more of inhibitory activity in 2 nM-addition zone)	ND (the inhibitory activity was less than 30% at the maximum concentration evaluated)	–	–
301 (ERV[Phe(4-COOH)]V[KCOpipzaa]R[3Pal(6-Ph)][KCOpipzaa]Y[Hyp][pBph3F]Y[Phe(4-COOH)][Phe(4-COOH)]SCG-NH2; not fully specified (N-terminus, bridges); also: cyclic peptide, ring closure not given here) [compound 301]	C (showed less than 30% of inhibitory activity in 0.2 nM-addition zone and showed 30% or more of inhibitory activity in 2 nM-addition zone)	E (showed less than 30% of inhibitory activity in 100 nM-addition zone and showed 30% or more of inhibitory activity in 1,000 nM-addition zone)	–	–
302 (ERV[Phe(4-COOH)]V[KCOpipzaa]R[3Pal(6-Ph)][KCOpipzaa]Y[Hyp][pBph2F]Y[Phe(4-COOH)][Phe(4-COOH)]SCG-NH2; not fully specified (N-terminus, bridges); also: cyclic peptide, ring closure not given here) [compound 302]	C (showed less than 30% of inhibitory activity in 0.2 nM-addition zone and showed 30% or more of inhibitory activity in 2 nM-addition zone)	E (showed less than 30% of inhibitory activity in 100 nM-addition zone and showed 30% or more of inhibitory activity in 1,000 nM-addition zone)	–	–
303 (ERV[Phe(4-COOH)]V[KCOpipzaa]R[Bph3C][KCOpipzaa]Y[Hyp][Bip]Y[Phe(4-COOH)][Phe(4-COOH)]SCG-NH2; not fully specified (N-terminus, bridges); also: cyclic peptide, ring closure not given here) [compound 303]	C (showed less than 30% of inhibitory activity in 0.2 nM-addition zone and showed 30% or more of inhibitory activity in 2 nM-addition zone)	E (showed less than 30% of inhibitory activity in 100 nM-addition zone and showed 30% or more of inhibitory activity in 1,000 nM-addition zone)	–	–
306 (ERV[Phe(4-COOH)][Cba][KCOpipzaa]R[3Pal(6-Ph)][KCOpipzaa]Y[Hyp][Bip]Y[Phe(4-COOH)][Phe(4-COOH)]SCG-NH2; not fully specified) [compound 306]	–	–	C (showed less than 30% of inhibitory activity in 0.2 nM-addition zone and showed 30% or more of inhibitory activity in 2 nM-addition zone)	E (showed less than 30% of inhibitory activity in 100 nM-addition zone and showed 30% or more of inhibitory activity in 1,000 nM-addition zone)
307 (ERV[Phe(4-COOH)][Chg][KCOpipzaa]R[3Pal(6-Ph)][KCOpipzaa]Y[Hyp][Bip]Y[Phe(4-COOH)][Phe(4-COOH)]SCG-NH2; not fully specified) [compound 307]	–	–	C (showed less than 30% of inhibitory activity in 0.2 nM-addition zone and showed 30% or more of inhibitory activity in 2 nM-addition zone)	E (showed less than 30% of inhibitory activity in 100 nM-addition zone and showed 30% or more of inhibitory activity in 1,000 nM-addition zone)
310 (ERV[Phe(4-COOH)][Ala(4-THP)][KCOpipzaa]R[3Pal(6-Ph)][KCOpipzaa]Y[Hyp][Bip]Y[Phe(4-COOH)][Phe(4-COOH)]SCG-NH2; not fully specified (N-terminus, bridges); also: cyclic peptide, ring closure not given here) [compound 310]	–	–	C (showed less than 30% of inhibitory activity in 0.2 nM-addition zone and showed 30% or more of inhibitory activity in 2 nM-addition zone)	E (showed less than 30% of inhibitory activity in 100 nM-addition zone and showed 30% or more of inhibitory activity in 1,000 nM-addition zone)
311 ({CH2CO}-ERV[Phe(4-COOH)]V[KCOpipzaa]R[3Pal(6-Ph)][KCOpipzaa]Y[Hyp][Bph3F]Y[Phe(4-COOH)][Phe(4-COOH)]SCG-NH2; thioether N-17 (inferred)) [compound 311]	–	–	B (showed less than 30% of inhibitory activity in 0.02 nM-addition zone and showed 30% or more of inhibitory activity in 0.2 nM-addition zone)	E (showed less than 30% of inhibitory activity in 100 nM-addition zone and showed 30% or more of inhibitory activity in 1,000 nM-addition zone)
313 (ERV[Phe(4-COOH)][Cba][KCOpipzaa]R[3Pal(6-Ph)][KCOpipzaa]Y[Hyp][Bph3F]Y[Phe(4-COOH)][Phe(4-COOH)]SCG-NH2; not fully specified) [compound 313]	–	–	A (showed 30% or more of inhibitory activity in a zone to which the peptide was added in an amount of 0.02 nM)	E (showed less than 30% of inhibitory activity in 100 nM-addition zone and showed 30% or more of inhibitory activity in 1,000 nM-addition zone)
314 (ERV[Phe(4-COOH)][Cba][KCOpipzaa]R[3Pal(6-Ph)][KCOpipzaa]Y[Hyp][Bph3C]Y[Phe(4-COOH)][Phe(4-COOH)]SCG-NH2; not fully specified) [compound 314]	–	–	B (showed less than 30% of inhibitory activity in 0.02 nM-addition zone and showed 30% or more of inhibitory activity in 0.2 nM-addition zone)	E (showed less than 30% of inhibitory activity in 100 nM-addition zone and showed 30% or more of inhibitory activity in 1,000 nM-addition zone)
315 (ERV[Phe(4-COOH)][Cba][KCOpipzaa]R[3Pal(6-Ph)][KCOpipzaa]Y[Hyp][Bip][4Pal][Phe(4-COOH)][Phe(4-COOH)]SCG-NH2) [compound 315]	–	–	B (showed less than 30% of inhibitory activity in 0.02 nM-addition zone and showed 30% or more of inhibitory activity in 0.2 nM-addition zone)	E (showed less than 30% of inhibitory activity in 100 nM-addition zone and showed 30% or more of inhibitory activity in 1,000 nM-addition zone)
316 (ERV[Phe(4-COOH)][Cba][KCOpipzaa]R[3Pal(6-Ph)][KCOpipzaa]Y[Hyp][Bph3F][4Pal][Phe(4-COOH)][Phe(4-COOH)]SCG-NH2; not fully specified) [compound 316]	–	–	C (showed less than 30% of inhibitory activity in 0.2 nM-addition zone and showed 30% or more of inhibitory activity in 2 nM-addition zone)	ND (the inhibitory activity was less than 30% at the maximum concentration evaluated)
317 (ERV[Phe(4-COOH)][Cba][KCOpipzaa]R[3Pal(6-Ph)][KCOpipzaa]Y[Hyp][Bph3C][4Pal][Phe(4-COOH)][Phe(4-COOH)]SCG-NH2; not fully specified) [compound 317]	–	–	B (showed less than 30% of inhibitory activity in 0.02 nM-addition zone and showed 30% or more of inhibitory activity in 0.2 nM-addition zone)	ND (the inhibitory activity was less than 30% at the maximum concentration evaluated)
318 (ERV[Phe(4-COOH)][Cha4tH][KCOpipzaa]R[3Pal(6-Ph)][KCOpipzaa]Y[Hyp][Bph3F]Y[Phe(4-COOH)][Phe(4-COOH)]SCG-NH2; not fully specified) [compound 318]	–	–	B (showed less than 30% of inhibitory activity in 0.02 nM-addition zone and showed 30% or more of inhibitory activity in 0.2 nM-addition zone)	D (showed less than 30% of inhibitory activity in a zone to which the peptide was added in an amount of 10 nM and showed 30% or more of inhibitory activity in 100 nM-addition zone)
319 (ERV[Phe(4-COOH)][Cha4tH][KCOpipzaa]R[3Pal(6-Ph)][KCOpipzaa]Y[Hyp][Bph3C]Y[Phe(4-COOH)][Phe(4-COOH)]SCG-NH2; not fully specified) [compound 319]	–	–	B (showed less than 30% of inhibitory activity in 0.02 nM-addition zone and showed 30% or more of inhibitory activity in 0.2 nM-addition zone)	D (showed less than 30% of inhibitory activity in a zone to which the peptide was added in an amount of 10 nM and showed 30% or more of inhibitory activity in 100 nM-addition zone)
320 (ERV[Phe(4-COOH)][Cha4tH][KCOpipzaa]R[3Pal(6-Ph)][KCOpipzaa]Y[Hyp][Bph3F][4Pal][Phe(4-COOH)][Phe(4-COOH)]SCG-NH2; not fully specified) [compound 320]	–	–	B (showed less than 30% of inhibitory activity in 0.02 nM-addition zone and showed 30% or more of inhibitory activity in 0.2 nM-addition zone)	E (showed less than 30% of inhibitory activity in 100 nM-addition zone and showed 30% or more of inhibitory activity in 1,000 nM-addition zone)
321 (ERV[Phe(4-COOH)][Cha4tH][KCOpipzaa]R[3Pal(6-Ph)][KCOpipzaa]Y[Hyp][Bph3C][4Pal][Phe(4-COOH)][Phe(4-COOH)]SCG-NH2) [compound 321]	–	–	B (showed less than 30% of inhibitory activity in 0.02 nM-addition zone and showed 30% or more of inhibitory activity in 0.2 nM-addition zone)	E (showed less than 30% of inhibitory activity in 100 nM-addition zone and showed 30% or more of inhibitory activity in 1,000 nM-addition zone)
